Measurements reported in patent US20140086913A1 (Gilead, published 2014).
Where two headings read alike, the source gives them in different places.

T1: human DDR2 stably expressed on HEK293 cells (human) (UniProt Q16832)
T1 sequence (looked up): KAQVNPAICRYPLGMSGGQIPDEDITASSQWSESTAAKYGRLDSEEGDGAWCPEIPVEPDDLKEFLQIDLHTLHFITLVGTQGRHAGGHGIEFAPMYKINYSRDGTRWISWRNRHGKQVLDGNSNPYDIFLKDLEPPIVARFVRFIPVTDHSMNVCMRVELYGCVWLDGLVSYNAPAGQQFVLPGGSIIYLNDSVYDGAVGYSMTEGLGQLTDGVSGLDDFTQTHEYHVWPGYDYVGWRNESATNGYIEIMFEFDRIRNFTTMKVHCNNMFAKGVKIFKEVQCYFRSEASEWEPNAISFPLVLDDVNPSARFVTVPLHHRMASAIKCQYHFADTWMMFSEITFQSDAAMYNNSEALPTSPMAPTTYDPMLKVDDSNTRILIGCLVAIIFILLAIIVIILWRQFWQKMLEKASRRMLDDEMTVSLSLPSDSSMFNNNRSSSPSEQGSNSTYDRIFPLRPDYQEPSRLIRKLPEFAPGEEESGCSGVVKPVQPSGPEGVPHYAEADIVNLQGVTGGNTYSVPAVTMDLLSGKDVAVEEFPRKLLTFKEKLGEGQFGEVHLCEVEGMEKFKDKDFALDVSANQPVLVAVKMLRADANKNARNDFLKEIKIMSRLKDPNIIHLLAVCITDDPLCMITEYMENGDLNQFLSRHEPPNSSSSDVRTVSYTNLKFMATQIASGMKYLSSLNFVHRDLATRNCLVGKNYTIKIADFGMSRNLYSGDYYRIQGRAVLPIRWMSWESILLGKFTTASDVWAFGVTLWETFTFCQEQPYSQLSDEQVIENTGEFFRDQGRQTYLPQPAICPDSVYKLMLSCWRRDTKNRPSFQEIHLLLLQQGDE

T2: mouse ECD-DDR1-Fc (mouse; human, UniProt Q03146 22-414)
T2 construct: also called mouse DDR1-ECD; wild-type mouse DDR1-ECD; not shown: human IgG1 Fc of the vector pFuse-hIgG1-Fc1 (Invivogen)
T2 sequence: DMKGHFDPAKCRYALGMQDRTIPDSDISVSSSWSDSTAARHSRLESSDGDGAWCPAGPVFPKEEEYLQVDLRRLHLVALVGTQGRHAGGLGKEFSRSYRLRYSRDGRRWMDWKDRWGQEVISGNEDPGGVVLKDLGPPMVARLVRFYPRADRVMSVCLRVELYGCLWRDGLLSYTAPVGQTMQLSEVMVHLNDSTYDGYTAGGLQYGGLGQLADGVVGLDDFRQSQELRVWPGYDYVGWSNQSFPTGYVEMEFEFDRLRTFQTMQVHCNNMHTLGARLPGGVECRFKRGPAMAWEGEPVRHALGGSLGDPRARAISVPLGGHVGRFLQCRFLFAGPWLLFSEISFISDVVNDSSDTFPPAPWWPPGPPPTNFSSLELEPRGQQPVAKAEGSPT

T3: human DDR2 stably expressed on HEK293 cells (human, UniProt Q16832 22-855)
T3 construct: whole, on cells; also called hDDR2
T3 sequence (looked up): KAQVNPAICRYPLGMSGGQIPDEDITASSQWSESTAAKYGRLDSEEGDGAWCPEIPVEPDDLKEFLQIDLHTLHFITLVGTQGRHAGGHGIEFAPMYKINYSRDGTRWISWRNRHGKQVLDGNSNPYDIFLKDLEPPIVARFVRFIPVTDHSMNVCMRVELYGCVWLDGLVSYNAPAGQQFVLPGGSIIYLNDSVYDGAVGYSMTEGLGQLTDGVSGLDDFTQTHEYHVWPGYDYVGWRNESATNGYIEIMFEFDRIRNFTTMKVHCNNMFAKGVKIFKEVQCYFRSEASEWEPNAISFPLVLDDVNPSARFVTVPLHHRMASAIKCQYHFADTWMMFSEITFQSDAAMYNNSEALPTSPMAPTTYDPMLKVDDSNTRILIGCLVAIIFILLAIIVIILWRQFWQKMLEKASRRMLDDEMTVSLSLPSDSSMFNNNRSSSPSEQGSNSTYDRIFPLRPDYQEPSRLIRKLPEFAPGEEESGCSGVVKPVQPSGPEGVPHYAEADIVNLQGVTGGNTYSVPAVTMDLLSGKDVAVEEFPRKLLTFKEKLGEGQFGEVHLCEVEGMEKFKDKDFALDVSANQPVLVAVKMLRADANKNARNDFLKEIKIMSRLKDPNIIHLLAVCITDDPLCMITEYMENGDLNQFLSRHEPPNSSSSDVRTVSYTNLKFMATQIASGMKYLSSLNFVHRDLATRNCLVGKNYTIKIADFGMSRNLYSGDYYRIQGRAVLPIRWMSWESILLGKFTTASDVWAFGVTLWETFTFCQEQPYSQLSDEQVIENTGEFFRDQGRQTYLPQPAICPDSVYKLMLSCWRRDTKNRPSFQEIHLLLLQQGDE


Columns and labels:
[1] = target: human DDR1 (isoform B) stably expressed on HEK293 cells (human) (UniProt Q08345); assay: flow cytometry, HEK293/hDDR1
Sequence of human DDR1 (isoform B) stably expressed on HEK293 cells (human) (Q08345 19-913): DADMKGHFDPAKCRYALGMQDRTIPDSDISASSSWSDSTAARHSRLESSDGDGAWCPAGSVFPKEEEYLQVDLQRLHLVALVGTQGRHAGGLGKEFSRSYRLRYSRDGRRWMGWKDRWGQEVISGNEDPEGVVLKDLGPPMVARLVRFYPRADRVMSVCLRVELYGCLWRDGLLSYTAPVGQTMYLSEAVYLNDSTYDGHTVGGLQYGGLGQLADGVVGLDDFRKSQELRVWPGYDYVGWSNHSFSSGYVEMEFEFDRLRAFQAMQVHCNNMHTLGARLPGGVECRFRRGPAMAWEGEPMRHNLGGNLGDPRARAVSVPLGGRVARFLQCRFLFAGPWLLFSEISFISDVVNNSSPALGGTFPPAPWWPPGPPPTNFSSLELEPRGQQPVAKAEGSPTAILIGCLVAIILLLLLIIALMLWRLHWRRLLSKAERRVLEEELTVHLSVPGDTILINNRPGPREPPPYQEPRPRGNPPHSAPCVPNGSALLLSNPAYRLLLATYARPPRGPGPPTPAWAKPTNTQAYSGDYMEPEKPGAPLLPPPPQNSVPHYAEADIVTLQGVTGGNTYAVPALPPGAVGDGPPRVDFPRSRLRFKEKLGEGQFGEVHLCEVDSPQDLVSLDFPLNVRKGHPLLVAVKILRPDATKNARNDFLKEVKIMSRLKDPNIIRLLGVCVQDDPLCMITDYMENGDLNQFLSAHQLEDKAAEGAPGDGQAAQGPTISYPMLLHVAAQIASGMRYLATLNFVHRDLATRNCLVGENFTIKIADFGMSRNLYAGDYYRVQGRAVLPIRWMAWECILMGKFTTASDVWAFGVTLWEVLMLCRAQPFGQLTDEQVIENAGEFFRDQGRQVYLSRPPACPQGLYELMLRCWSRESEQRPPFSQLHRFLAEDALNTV

[2] = target: DDR1 endogenously expressed on human cancer cell lines (T47D, HCT-116, A431) (human) (UniProt Q08345); assay: flow cytometry, T47D cells
[3] = target: DDR1 with a ProLink Tag (PK) in engineered U20S cells (DiscoveRx), Q08345; assay: cell-based or functional assay
[4] = target: T1, human DDR2 stably expressed on HEK293 cells (human); assay: flow cytometry, HEK293/hDDR2
[5] = target: DDR1 endogenously expressed on human cancer cell lines (T47D, HCT-116, A431) (human) (UniProt Q08345); assay: cell-based or functional assay
mouse ECD-DDR1-Fc = target: T2, mouse ECD-DDR1-Fc; assay: ELISA, coated antigen, apparent KD
Procedure: (§1) In this study, ELISA was used to determine the affinity of murine anti-DDR1 monoclonal antibodies to the extracellular domain (ECD) of either human or murine DDR1. A 96-well MaxiSorb ELISA plates (Nunc) were coated with 2 μg/mL of one of three purified recombinant tagged proteins: human ECD-DDR1-His protein, human ECD-DDR1-Fc, or mouse ECD-DDR1-Fc overnight at 4° C. The next day, the plates were blocked with 5% bovine serum albumin (BSA, Jackson Immunoresearch) prior to the addition of serially diluted anti-DDR1 monoclonal antibodies. Antibodies were incubated for 1 hr at room temperature. The binding of antibody to the antigen was detected by incubating samples with anti-mouse IgG-HRP (horse radish peroxidase) secondary detection antibody (Jackson Immunoresearch) for 1 hr. After a washing step, 3,3′,5,5″-tetramethylbenzidine (TMB) reagent was added for HRP to produce a colorimetric signal. The reaction was stopped by addition of 1M hydrochloric acid after 2 minutes and measured for absorbance (optical density, OD) at 450λ on a Molecular Devices plate reader. The OD values were plotted against antibody concentration and fitted using a using 4-parameter logistic equation in SoftMax software (Molecular Devices). The apparent affinity constant (KD) was taken from the C-parameter of the equation (y=(A−D)/(1+(x/C)̂B)+D). The apparent affinity constants were summarized (in some cases shown as average values) in Table 10 below. Lower value indicates higher binding affinity of the antibody to the antigen.

[6] = target: T4, DDR1ECD-Fc (R&D Systems, Catalog #2396-DR) (human, UniProt Q08345 21-416); assay: ELISA, coated antigen, apparent KD
T4 construct: range 21-416; construct as described for the bought immunogen; also called human ECD-DDR1-Fc; Fc-ECD-DR1; not shown: human IgG1, Pro100-Lys330
Procedure: as §1

[7] = target: T5, human ECD-DDR1-His protein (human, UniProt Q08345 21-416); assay: ELISA, coated antigen, apparent KD
T5 construct: also called huDDR1-ECD-His; DDR1ECD-6Xhis; not shown: His tag
Procedure: as §1

[8] = target: DDR1 endogenously expressed on human cancer cell lines (T47D, HCT-116, A431) (human) (UniProt Q08345); assay: flow cytometry, HCT116 cells
[9] = target: DDR1 with a ProLink Tag (PK) in engineered U20S cells (DiscoveRx) (UniProt Q08345); assay: cell-based or functional assay
[10] = target: DDR1 endogenously expressed on human cancer cell lines (T47D, HCT-116, A431) (human) (UniProt Q08345); assay: cell-based or functional assay; remark: listed apart in the source
[11] = target: T3, human DDR2 stably expressed on HEK293 …; assay: flow cytometry, HEK293/hDDR2
Procedure: Additional monoclonal antibodies were obtained from individual hybridomas in Example 1 and were characterized for their properties.
Cells were cultured in DMEM with 10% FBS and 0.8 mg/mL hygromycin. When cells reached 60-80% confluence, they were centrifuged at 1,200 rpm for 5 minutes, suspended in FACS buffer (1×PBS, 1% BSA), and aliquoted into a 96-well plate at 1×10⁶ cells per well. The anti-DDR1 monoclonal antibodies or appropriate isotype controls at 2 μg per 1×10⁶ cells were added and incubated at 4° C. for 1 hr. The cells were washed twice with FACS buffer then stained with the anti-IgG-PE secondary antibody at 10 μL per well at 4° C. for 1 hr. The cells were washed again and measured for the MFI values or signals using flow cytometry (LSR Fortessa instrument, BD Biosciences). Background MFI signals from vector-only cells (i.e. no DDR1 or DDR2 expression) was subtracted from those of the cells treated with antibodies. Higher MFI values or signals indicated increased binding or specificity of the anti-DDR1 antibodies to the DDR1 on the cell surface.

[12] = target: T4, DDR1ECD-Fc (R&D Systems, Catalog …); assay: ELISA
[13] = target: human DDR1 (isoform B) stably expressed on HEK293 cells (human) (UniProt Q08345); assay: flow cytometry, HEK293/human DDR1, normalized to empty-vector cells

| Binder | MFI [1] [MFI] | MFI [2] [MFI] | Mean EC50, DDR1 Tyr513 phosphorylation assay (U20S) [3] [pM] | MFI [4] [MFI] | EC50, DDR1 phospho-specific ELISA (T47D) [5] [pM] | EC50, cluster formation assay (A431 cells) [5] [pM] | Maximal inhibition, DDR1 phospho-specific ELISA (T47D) [5] [%] | Kd (mouse ECD-DDR1-Fc) [pM] | Kd [6] [pM] | Kd [7] [pM] | MFI [8] [MFI] | Mean EC50, DDR1 Tyr513 phosphorylation assay (U20S) [9] [pM] | EC50, DDR1 phospho-specific ELISA (T47D) [10] [pM] | EC50, cluster formation assay (A431 cells) [10] [pM] | Maximal inhibition, DDR1 phospho-specific ELISA (T47D) [10] [%] | NPI of cluster formation at 66 nM (A431 cells) [10] [%] | MFI [11] [MFI] | Kd [12] [pM] | MFI [13] [MFI] |
| --- | --- | --- | --- | --- | --- | --- | --- | --- | --- | --- | --- | --- | --- | --- | --- | --- | --- | --- | --- |
| AB2080 (antibody, V domains shown, mouse hybridoma mAb) VH: EVQLQQSGPELVKPGASMKISCKASGYSFTGYTMTWVKQSHGKNLEWIGLINPYIGVTSYNQKFKGKATLTVDKSSSTAYMELLSLTSEDSAVYYCARLYDRGGRYAMDYWGQGTSVTVSS VL: QIVLTQSPAIMSASPGEKVPMTCSASSSVSFMHWYQQKSGTSPKRWIYDTSKLASGVPARFSGSGSGTSYSLTISNMEAEDAATYYCQQWNSDPWTFGGGSKL | 3140 | 1220 | 2200 | 313 | 4670 | 1240 | 100 | 2890 | 669 | 418 | 572 | – | – | – | – | – | – | – | – |
| AB2061 (antibody, V domains shown, mouse hybridoma mAb) VH: EIQLQQSGPELVNPGASVKVSCKASGYSFTDYNMYWVKQSHGKSLEWIGYIDPYNGGTSYNQKFKGKATLTVDKSSSTAFMHLNSLTSEDSAVYYCAREYYGSRLWYFDVWGAGTAVTVSS VL: DIVMTQSPSSLAMSVGQKVTMSCKSSQSLLNRNNQKNYLAWYQQKPGQSPKLLVYFASTRESGVPDRFIGSGSGTDFTLTLSSVRAEDLAENFCQQHYSTPFTFGSGTRLEIKR | 7500 | 4620 | – | – | – | – | – | 28000 | 418 | 391 | 1200 | 2500 | 660 | 880 | 100 | 126 | 384 | – | – |
| AB2074 (antibody, V domains shown, mouse hybridoma mAb) VH: EIQLQQSGPELVNPGASVKVSCKASGYSFTDYNMYWVKQSHGKSLEWIGYIDPYNGGTSYNQKFKGKATLTVDKSSSTAFMHLNSLTSEDSAVYYCAREYYGSRLWYFDVWGAGTAVTVSS VL: DIVMTQSPSSLAMSVGQKVTMSCKSSQSLLNRNNQKNYLAWYQQKPGQSPKLLVYFASTRESGVPDRFIGSGSGTDFTLTLSSVRAEDLAENFCQQHYSTPFTFGSGTRLEIKR | 7810 | 4420 | – | – | – | – | – | 28500 | 259 | 470 | 1470 | 1500 | 470 | – | 100 | 112 | 382 | 259 | 7810 |
| AB2026 (antibody, V domains shown, mouse hybridoma mAb) VH: EVQLVESGGGLVQPGGSLKFSCAASGFTFSSYGMSWVRQTPDKRLELVAIINSHGFSTYYPDSVKGRFTISRDNAKNTLYLQMSSLKSEDTAIYYCARGGYGNYGMDYWGQGTSVTVSS VL: DIVLTQSPASLAVSLGQRATISCRASESVDSYGNSFMHWYQQKVGQPPKLLIFRASNIESGIPARFSGSGSRTDFTLTINSVEADDVATYYCQQSNEAPYTFGGGTKLEIKR | 6350 | 4670 | 1700 | – | – | – | – | 17900 | 298 | 161 | 1540 | – | 390 | – | 100 | 115 | 203 | 298 | 6350 |
| AB2031 (antibody, V domains shown, mouse hybridoma mAb) VH: EVQLVESGGGLVQPGGSLKFSCAASGFTFSSYGMSWVRQTPDKRLELVAIINSHGFSTYYPDSVKGRFTISRDNAKNTLYLQMSSLKSEDTAIYYCARGGYGNYGMDYWGQGTSVTVSS VL: DIVLTQSPASLAVSLGQRATISCRASESVDSYGNSFMHWYQQKVGQPPKLLIFRASNIESGIPARFSGSGSRTDFTLTINSVEADDVATYYCQQSNEAPYTFGGGTKLEIKR | 8540 | 4600 | 990 | – | – | – | – | 17300 | 257 | 148 | 1460 | – | 400 | 630 | 100 | 113 | 195 | 257 | 8540 |
